Test results reported in the supplement of paper PMC7877785.
± gives the uncertainty stated by the source.

Assay: self-splicing fitness, log relative to wild type (ln ratio); higher = more splicing; Tetrahymena group I intron in knt gene, E. coli kanamycin selection, DiMSum; sequences stand for … in CUCUCU…GGAGGGAAAAGUUAUCAGGCAUGCACCUGGUAGCUAGUCUUUAAACCAAUAGAUUGCAUCGGUUUAAAAGGCAAGACCGUCAAAUUGCGGGAAAGGGGUCAACAGCCGUUCAGUACCAAGUCUCAGGGGAAACUUUGAGAUGGCCUUGCAAAGGGUAUGGUAAUAAGCUGACGGACAUGGUCCUAACCACGCAGCCAAGUCCUAAGUCAACAGAUCUUCUGUUGAUAUGGAUGCAGUUCACAGACUAAAUGUCGGUCGGGGAAGAUGUAUUCUUCUCAUAAGAUAUAGUCGGACCUCUCCUUAAUGGGAGCUAGCGGAUGAAGUGAUGCAACACUGGAGCCGCUGGGAACUAAUUUGUAUGCGAAAGUAUAUUGAUUAGUUUUGGAGUACUCGUGGUCG
Method in brief: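 Library with all eight P1ex-region intron nucleotides randomised, intron inside the knt kanamycin-resistance gene on pET-22b(+), in E. coli BL21(DE3). Cells grew overnight at 37°C or 30°C on LB agar with or without 25 μg/mL kanamycin (plus 100 μg/mL carbenicillin, 50 μM IPTG, 0.2% rhamnose), in six replicate transformations. Pooled colonies were amplicon-sequenced on Illumina HiSeq 2500. DiMSum fitness is the error-weighted combination of wild-type-normalised replicate fold changes, kanamycin versus none.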

Sequence	self-splicing fitness (ln) (30 °C)	self-splicing fitness (ln) (37 °C)
GAAGAGCAAUAUUACGAAGC	-3.81 ± 0.46	-0.865 ± 0.3
GAAGAGCAAUAUUACGAAUC	-3.48 ± 0.22	-1.91 ± 0.15
GAAGAGCAAUAUUACGACAC	-1.1 ± 0.31	0.351 ± 0.33
GAAGAGCAAUAUUACGACGG	-2.5 ± 0.37	-2.67 ± 0.48
GAAGAGCAAUAUUACGAGAC	-3.95 ± 0.26	-1.4 ± 0.25
GAAGAGCAAUAUUACGAUGG	-3.18 ± 0.17	-2.1 ± 0.23
GAAGAGCAAUAUUACGCAUG	-3.45 ± 0.47	-2.36 ± 0.33
GAAGAGCAAUAUUACGCCCA	-3.65 ± 0.48	-0.321 ± 0.31
GAAGAGCAAUAUUACGGCAA		-2.36 ± 0.49
GAAGAGCAAUAUUACGGCCA	-1.59 ± 0.3	-1.27 ± 0.5
GAAGAGCAAUAUUACGGCGA	-1.57 ± 0.2	-0.931 ± 0.25
GAAGAGCAAUAUUACGGUCA	-2.72 ± 0.34	-2.05 ± 0.23
GAAGAGCAAUAUUACGGUCC	-2.17 ± 0.26	-2.32 ± 0.33
GAAGAGCAAUAUUACGGUCG	-3.24 ± 0.13	-1.61 ± 0.15
GAAGAGCAAUAUUACGGUGU	-3.49 ± 0.14	-3.02 ± 0.23
GAAGAGCAAUAUUACGGUUA	-1.49 ± 0.19	-1.27 ± 0.23
GAAGAGCAAUAUUACGUAGU	-2.69 ± 0.13	-2.88 ± 0.2
GAAGAGCAAUAUUACGUCAU	-3.91 ± 0.48	-2.13 ± 0.38
GAAGAGCAAUAUUACGUCUC	-2.37 ± 0.37	-1.19 ± 0.49
GAAGAGCAAUAUUACGUGAC	-3.21 ± 0.22	-1.72 ± 0.18
GAAGAGCAAUAUUACGUUUU	-4.09 ± 0.23	-2.38 ± 0.21
GAAUAGCAAUAUUACGAAGG	-2.77 ± 0.27	
GAAUAGCAAUAUUACGCCCG	-1.28 ± 0.18	-0.828 ± 0.23
GAAUAGCAAUAUUACGCCUU	-0.0381 ± 0.072	0.111 ± 0.081

Sequence	self-splicing fitness (ln) (30 °C)	self-splicing fitness (ln) (37 °C)
GAAUAGCAAUAUUACGCGCA	-0.334 ± 0.066	-0.494 ± 0.074
GAAUAGCAAUAUUACGCGUC	-1.98 ± 0.23	0.15 ± 0.32
GAAUAGCAAUAUUACGCUAA	-2.59 ± 0.25	-1.05 ± 0.25
GAAUAGCAAUAUUACGCUUU	-2.02 ± 0.15	-1.35 ± 0.16
GAAUAGCAAUAUUACGGAGG	-4.24 ± 0.3	-2.27 ± 0.22
GAAUAGCAAUAUUACGGUCU	-0.677 ± 0.084	-0.0473 ± 0.097
GAAUAGCAAUAUUACGGUUA	-0.656 ± 0.11	-0.631 ± 0.091
GAAUAGCAAUAUUACGUCUC	-0.581 ± 0.11	-0.137 ± 0.16
GAAUAGCAAUAUUACGUGCC	-0.897 ± 0.12	-0.104 ± 0.15
GAAUAGCAAUAUUACGUGUU	-2.18 ± 0.12	-0.873 ± 0.1
GAAUAGCAAUAUUACGUUGG	-3.3 ± 0.16	-2.77 ± 0.2
GAAUAGCAAUAUUACGUUUA	-1.79 ± 0.15	-1.01 ± 0.15
GACAAGCAAUAUUACGAAAG	-3.82 ± 0.23	-3.18 ± 0.24
GACAAGCAAUAUUACGACGU	-0.139 ± 0.065	-0.167 ± 0.074
GACAAGCAAUAUUACGACUA	-0.408 ± 0.058	0.117 ± 0.066
GACAAGCAAUAUUACGAGAA	-1.77 ± 0.3	-2.19 ± 0.22
GACAAGCAAUAUUACGAGGU	-3.51 ± 0.15	-2.92 ± 0.16
GACAAGCAAUAUUACGAGUG	-1.55 ± 0.056	-0.456 ± 0.073
GACAAGCAAUAUUACGAUCG	-0.776 ± 0.086	-0.39 ± 0.11
GACAAGCAAUAUUACGCAAG	-2.27 ± 0.091	-1.75 ± 0.12
GACAAGCAAUAUUACGCCUA	-0.964 ± 0.093	-0.0625 ± 0.088
GACAAGCAAUAUUACGCCUG	-1.3 ± 0.093	-0.0185 ± 0.1
GACAAGCAAUAUUACGCUCU	-2.38 ± 0.13	-1.08 ± 0.12
GACAAGCAAUAUUACGCUUC	-3.75 ± 0.26	-2.25 ± 0.25
